Numbering of substitutions follows the chain as printed.
B1: Compound 19 (peptide)
peptide: HXEGTFTSELATILDXQAARDFIAWLIQHKITD
HELM: PEPTIDE1{H.[Aib].E.G.T.F.T.S.E.L.A.T.I.L.D.K.Q.A.A.R.D.F.I.A.W.L.I.Q.H.K.I.T.D}|PEPTIDE2{[O=C(O)CCCCCCCCCCCCCCCCC(=O)[*:2]].[gGlu]}$PEPTIDE1,PEPTIDE2,16:R3-2:R2$$$V2.0
SMILES: CC[C@H](C)[C@H](NC(=O)[C@H](Cc1ccccc1)NC(=O)[C@H](CC(=O)O)NC(=O)[C@H](CCCNC(=N)N)NC(=O)[C@H](C)NC(=O)[C@H](C)NC(=O)[C@H](CCC(N)=O)NC(=O)[C@H](CCCCNC(=O)CC[C@H](NC(=O)CCCCCCCCCCCCCCCCC(=O)O)C(=O)O)NC(=O)[C@H](CC(=O)O)NC(=O)[C@H](CC(C)C)NC(=O)[C@@H](NC(=O)[C@@H](NC(=O)[C@H](C)NC(=O)[C@H](CC(C)C)NC(=O)[C@H](CCC(=O)O)NC(=O)[C@H](CO)NC(=O)[C@@H](NC(=O)[C@H](Cc1ccccc1)NC(=O)[C@@H](NC(=O)CNC(=O)[C@H](CCC(=O)O)NC(=O)C(C)(C)NC(=O)[C@@H](N)Cc1c[nH]cn1)[C@@H](C)O)[C@@H](C)O)[C@@H](C)O)[C@@H](C)CC)C(=O)N[C@@H](C)C(=O)N[C@@H](Cc1c[nH]c2ccccc12)C(=O)N[C@@H](CC(C)C)C(=O)N[C@H](C(=O)N[C@@H](CCC(N)=O)C(=O)N[C@@H](Cc1c[nH]cn1)C(=O)N[C@@H](CCCCN)C(=O)N[C@H](C(=O)N[C@H](C(=O)N[C@@H](CC(=O)O)C(=O)O)[C@@H](C)O)[C@@H](C)CC)[C@@H](C)CC
B2: Compound 22 (peptide)
peptide: B1 peptide with T5S, Q28A
HELM: PEPTIDE1{H.[Aib].E.G.S.F.T.S.E.L.A.T.I.L.D.K.Q.A.A.R.D.F.I.A.W.L.I.A.H.K.I.T.D}|PEPTIDE2{[O=C(O)CCCCCCCCCCCCCCCCC(=O)[*:2]].[gGlu]}$PEPTIDE1,PEPTIDE2,16:R3-2:R2$$$V2.0
SMILES: CC[C@H](C)[C@H](NC(=O)[C@H](CC(C)C)NC(=O)[C@H](Cc1c[nH]c2ccccc12)NC(=O)[C@H](C)NC(=O)[C@@H](NC(=O)[C@H](Cc1ccccc1)NC(=O)[C@H](CC(=O)O)NC(=O)[C@H](CCCNC(=N)N)NC(=O)[C@H](C)NC(=O)[C@H](C)NC(=O)[C@H](CCC(N)=O)NC(=O)[C@H](CCCCNC(=O)CC[C@H](NC(=O)CCCCCCCCCCCCCCCCC(=O)O)C(=O)O)NC(=O)[C@H](CC(=O)O)NC(=O)[C@H](CC(C)C)NC(=O)[C@@H](NC(=O)[C@@H](NC(=O)[C@H](C)NC(=O)[C@H](CC(C)C)NC(=O)[C@H](CCC(=O)O)NC(=O)[C@H](CO)NC(=O)[C@@H](NC(=O)[C@H](Cc1ccccc1)NC(=O)[C@H](CO)NC(=O)CNC(=O)[C@H](CCC(=O)O)NC(=O)C(C)(C)NC(=O)[C@@H](N)Cc1c[nH]cn1)[C@@H](C)O)[C@@H](C)O)[C@@H](C)CC)[C@@H](C)CC)C(=O)N[C@@H](C)C(=O)N[C@@H](Cc1c[nH]cn1)C(=O)N[C@@H](CCCCN)C(=O)N[C@H](C(=O)N[C@H](C(=O)N[C@@H](CC(=O)O)C(=O)O)[C@@H](C)O)[C@@H](C)CC
B3: Compound 23 (peptide)
peptide: B1 peptide with Q28A
HELM: PEPTIDE1{H.[Aib].E.G.T.F.T.S.E.L.A.T.I.L.D.K.Q.A.A.R.D.F.I.A.W.L.I.A.H.K.I.T.D}|PEPTIDE2{[O=C(O)CCCCCCCCCCCCCCCCC(=O)[*:2]].[gGlu]}$PEPTIDE1,PEPTIDE2,16:R3-2:R2$$$V2.0
SMILES: CC[C@H](C)[C@H](NC(=O)[C@H](CC(C)C)NC(=O)[C@H](Cc1c[nH]c2ccccc12)NC(=O)[C@H](C)NC(=O)[C@@H](NC(=O)[C@H](Cc1ccccc1)NC(=O)[C@H](CC(=O)O)NC(=O)[C@H](CCCNC(=N)N)NC(=O)[C@H](C)NC(=O)[C@H](C)NC(=O)[C@H](CCC(N)=O)NC(=O)[C@H](CCCCNC(=O)CC[C@H](NC(=O)CCCCCCCCCCCCCCCCC(=O)O)C(=O)O)NC(=O)[C@H](CC(=O)O)NC(=O)[C@H](CC(C)C)NC(=O)[C@@H](NC(=O)[C@@H](NC(=O)[C@H](C)NC(=O)[C@H](CC(C)C)NC(=O)[C@H](CCC(=O)O)NC(=O)[C@H](CO)NC(=O)[C@@H](NC(=O)[C@H](Cc1ccccc1)NC(=O)[C@@H](NC(=O)CNC(=O)[C@H](CCC(=O)O)NC(=O)C(C)(C)NC(=O)[C@@H](N)Cc1c[nH]cn1)[C@@H](C)O)[C@@H](C)O)[C@@H](C)O)[C@@H](C)CC)[C@@H](C)CC)C(=O)N[C@@H](C)C(=O)N[C@@H](Cc1c[nH]cn1)C(=O)N[C@@H](CCCCN)C(=O)N[C@H](C(=O)N[C@H](C(=O)N[C@@H](CC(=O)O)C(=O)O)[C@@H](C)O)[C@@H](C)CC
B4: Compound 20 (peptide)
peptide: B1 peptide with T7S, Q28E
HELM: PEPTIDE1{H.[Aib].E.G.T.F.S.S.E.L.A.T.I.L.D.K.Q.A.A.R.D.F.I.A.W.L.I.E.H.K.I.T.D}|PEPTIDE2{[O=C(O)CCCCCCCCCCCCCCCCC(=O)[*:2]].[gGlu]}$PEPTIDE1,PEPTIDE2,16:R3-2:R2$$$V2.0
SMILES: CC[C@H](C)[C@H](NC(=O)[C@H](Cc1ccccc1)NC(=O)[C@H](CC(=O)O)NC(=O)[C@H](CCCNC(=N)N)NC(=O)[C@H](C)NC(=O)[C@H](C)NC(=O)[C@H](CCC(N)=O)NC(=O)[C@H](CCCCNC(=O)CC[C@H](NC(=O)CCCCCCCCCCCCCCCCC(=O)O)C(=O)O)NC(=O)[C@H](CC(=O)O)NC(=O)[C@H](CC(C)C)NC(=O)[C@@H](NC(=O)[C@@H](NC(=O)[C@H](C)NC(=O)[C@H](CC(C)C)NC(=O)[C@H](CCC(=O)O)NC(=O)[C@H](CO)NC(=O)[C@H](CO)NC(=O)[C@H](Cc1ccccc1)NC(=O)[C@@H](NC(=O)CNC(=O)[C@H](CCC(=O)O)NC(=O)C(C)(C)NC(=O)[C@@H](N)Cc1c[nH]cn1)[C@@H](C)O)[C@@H](C)O)[C@@H](C)CC)C(=O)N[C@@H](C)C(=O)N[C@@H](Cc1c[nH]c2ccccc12)C(=O)N[C@@H](CC(C)C)C(=O)N[C@H](C(=O)N[C@@H](CCC(=O)O)C(=O)N[C@@H](Cc1c[nH]cn1)C(=O)N[C@@H](CCCCN)C(=O)N[C@H](C(=O)N[C@H](C(=O)N[C@@H](CC(=O)O)C(=O)O)[C@@H](C)O)[C@@H](C)CC)[C@@H](C)CC
B5: Compound 21 (peptide)
peptide: B1 peptide with T7S, Q28A
HELM: PEPTIDE1{H.[Aib].E.G.T.F.S.S.E.L.A.T.I.L.D.K.Q.A.A.R.D.F.I.A.W.L.I.A.H.K.I.T.D}|PEPTIDE2{[O=C(O)CCCCCCCCCCCCCCCCC(=O)[*:2]].[gGlu]}$PEPTIDE1,PEPTIDE2,16:R3-2:R2$$$V2.0
SMILES: CC[C@H](C)[C@H](NC(=O)[C@H](CC(C)C)NC(=O)[C@H](Cc1c[nH]c2ccccc12)NC(=O)[C@H](C)NC(=O)[C@@H](NC(=O)[C@H](Cc1ccccc1)NC(=O)[C@H](CC(=O)O)NC(=O)[C@H](CCCNC(=N)N)NC(=O)[C@H](C)NC(=O)[C@H](C)NC(=O)[C@H](CCC(N)=O)NC(=O)[C@H](CCCCNC(=O)CC[C@H](NC(=O)CCCCCCCCCCCCCCCCC(=O)O)C(=O)O)NC(=O)[C@H](CC(=O)O)NC(=O)[C@H](CC(C)C)NC(=O)[C@@H](NC(=O)[C@@H](NC(=O)[C@H](C)NC(=O)[C@H](CC(C)C)NC(=O)[C@H](CCC(=O)O)NC(=O)[C@H](CO)NC(=O)[C@H](CO)NC(=O)[C@H](Cc1ccccc1)NC(=O)[C@@H](NC(=O)CNC(=O)[C@H](CCC(=O)O)NC(=O)C(C)(C)NC(=O)[C@@H](N)Cc1c[nH]cn1)[C@@H](C)O)[C@@H](C)O)[C@@H](C)CC)[C@@H](C)CC)C(=O)N[C@@H](C)C(=O)N[C@@H](Cc1c[nH]cn1)C(=O)N[C@@H](CCCCN)C(=O)N[C@H](C(=O)N[C@H](C(=O)N[C@@H](CC(=O)O)C(=O)O)[C@@H](C)O)[C@@H](C)CC
B6: reference compound A (peptide)
peptide: B1 peptide with E3D, T5S, T7S
HELM: PEPTIDE1{H.[Aib].D.G.S.F.S.S.E.L.A.T.I.L.D.K.Q.A.A.R.D.F.I.A.W.L.I.Q.H.K.I.T.D}|PEPTIDE2{[O=C(O)CCCCCCCCCCCCCCCCC(=O)[*:2]].[gGlu]}$PEPTIDE1,PEPTIDE2,16:R3-2:R2$$$V2.0
SMILES: CC[C@H](C)[C@H](NC(=O)[C@H](Cc1ccccc1)NC(=O)[C@H](CC(=O)O)NC(=O)[C@H](CCCNC(=N)N)NC(=O)[C@H](C)NC(=O)[C@H](C)NC(=O)[C@H](CCC(N)=O)NC(=O)[C@H](CCCCNC(=O)CC[C@H](NC(=O)CCCCCCCCCCCCCCCCC(=O)O)C(=O)O)NC(=O)[C@H](CC(=O)O)NC(=O)[C@H](CC(C)C)NC(=O)[C@@H](NC(=O)[C@@H](NC(=O)[C@H](C)NC(=O)[C@H](CC(C)C)NC(=O)[C@H](CCC(=O)O)NC(=O)[C@H](CO)NC(=O)[C@H](CO)NC(=O)[C@H](Cc1ccccc1)NC(=O)[C@H](CO)NC(=O)CNC(=O)[C@H](CC(=O)O)NC(=O)C(C)(C)NC(=O)[C@@H](N)Cc1c[nH]cn1)[C@@H](C)O)[C@@H](C)CC)C(=O)N[C@@H](C)C(=O)N[C@@H](Cc1c[nH]c2ccccc12)C(=O)N[C@@H](CC(C)C)C(=O)N[C@H](C(=O)N[C@@H](CCC(N)=O)C(=O)N[C@@H](Cc1c[nH]cn1)C(=O)N[C@@H](CCCCN)C(=O)N[C@H](C(=O)N[C@H](C(=O)N[C@@H](CC(=O)O)C(=O)O)[C@@H](C)O)[C@@H](C)CC)[C@@H](C)CC

Molecular target: T1, human GLP-2 receptor (hGLP2-R) (human, UniProt O95838 1-553)
T1 sequence (looked up): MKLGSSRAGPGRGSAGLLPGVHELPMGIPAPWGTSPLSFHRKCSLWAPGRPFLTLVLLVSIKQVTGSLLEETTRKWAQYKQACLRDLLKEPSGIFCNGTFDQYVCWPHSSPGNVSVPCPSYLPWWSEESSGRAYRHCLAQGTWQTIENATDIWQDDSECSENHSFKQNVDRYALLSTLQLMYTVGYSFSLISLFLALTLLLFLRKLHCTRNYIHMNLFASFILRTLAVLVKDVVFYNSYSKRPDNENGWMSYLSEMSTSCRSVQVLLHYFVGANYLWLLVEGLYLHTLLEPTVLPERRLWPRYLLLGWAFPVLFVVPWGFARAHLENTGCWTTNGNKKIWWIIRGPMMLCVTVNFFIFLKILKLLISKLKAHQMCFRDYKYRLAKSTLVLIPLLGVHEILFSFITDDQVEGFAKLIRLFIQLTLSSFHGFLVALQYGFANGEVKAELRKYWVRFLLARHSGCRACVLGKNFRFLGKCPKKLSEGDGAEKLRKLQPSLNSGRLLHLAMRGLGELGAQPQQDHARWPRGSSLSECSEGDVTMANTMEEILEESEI
Assay: cell-based or functional assay

Question: B1 was tested. Which “EC50 GLP-2 (nM); cAMP response” value did it give?
Answer: The value was 0.23 nM.

Question: With B2 as the binder, how does the “EC50 GLP-2 (nM); cAMP response” value read?
Answer: The value was 0.2 nM.

Question: With B3 as the binder, how does the “EC50 GLP-2 (nM); cAMP response” value read?
Answer: Its value is 0.24 nM.

Question: B4 was tested. Which “EC50 GLP-2 (nM); cAMP response” value did it give?
Answer: The value was 0.37 nM.

Question: With B5 as the binder, how does the “EC50 GLP-2 (nM); cAMP response” value read?
Answer: Its value is 0.27 nM.

Question: For B6, which “EC50 GLP-2 (nM); cAMP response” value is on record?
Answer: The value was 0.083 nM.

Molecular target: human glucagon-like peptide 1 receptor (GLP-1 R) (human, UniProt P43220 24-463)
Assay: cell-based or functional assay

Question: With B1 as the binder, how does the “EC50 GLP-1 (nM); cAMP response” value read?
Answer: Its value is 0.066 nM.

Question: For B2, which “EC50 GLP-1 (nM); cAMP response” value is on record?
Answer: The value was 0.23 nM.

Question: B3 was tested. Which “EC50 GLP-1 (nM); cAMP response” value did it give?
Answer: Its value is 0.13 nM.

Question: For B4, which “EC50 GLP-1 (nM); cAMP response” value is on record?
Answer: Its value is 0.55 nM.

Question: With B5 as the binder, how does the “EC50 GLP-1 (nM); cAMP response” value read?
Answer: Its value is 1.8 nM.

Question: For B6, which “EC50 GLP-1 (nM); cAMP response” value is on record?
Answer: The value was 0.49 nM.
